Test results published in patent US12686710B2, “Anti-HER2 polypeptides derivatives as new diagnostic molecular probes” (BRACCO IMAGING S.P.A., priority 2019, dated 2026).

Legend:
[1] = target: HER2 (Homo sapiens, UniProt P04626); experiment: ELISA monitoring of affitin selection against HER2; format: binding; conditions: end of selection process
Description: (§1) To selectively target HER2 receptor, a library of affitins has been enriched against the target by several consecutive rounds of screening (up to 6 rounds). The enrichment of anti-HER2 afftins has been followed after any selection round by ELISA assay monitoring, also controlling the condition of negligible binding to human (HSA), murine (MSA) and bovine (BSA) serum albumin.

[2] = tested on: MCF-7 breast cancer cell line (low expressing HER2 receptor); experiment: Cell internalization assay with Pe38 fusion, cell viability; format: cell-based, human; conditions: Aff03 tested as fusion Aff04-0-Pe38 (SEQ ID NO: 5), different concentrations
Experimental: (§2) The cells internalization of Aff03 was evaluated using a dedicated cell-based assay. […] Such truncated form (Pe38) needs to be internalized by means of the Aff03 to keep its cytotoxic activity.
(§3) To test internalization, then, the viability of the breast adenocarcinoma cell line SK-BR-3 (overexpressing HER2 receptor) and of the breast cancer cell line MCF-7 (low expressing HER2 receptor) was measured at different nanofitin concentrations.

[3] = tested on: SK-BR-3 breast adenocarcinoma cell line (overexpressing HER2 receptor); experiment: as above; format: cell-based, human; conditions: Aff03 tested as fusion Aff04-0-Pe38 (SEQ ID NO: 5), different concentrations
Experimental: as §2, §3

[4] = tested on: human (HSA), murine (MSA) and bovine (BSA) serum albumin; experiment: ELISA control of binding to serum albumins
Description: as §1

B1: Aff03: 64 aac affitin of SEQ ID NO: 1, HER2-binding polypeptide (protein, listed as Sulfolobus acidocaldarius)
chain: VKVKFGHMGEEKEVDTSKIYAVNRAGKFVHFAYDDNGKFGSGSVPEKDAPKELLDMLARAEREK
With B1 the “affinity to HER2” value [1] was “nanomolar affinity”, the “cytotoxic induction (cell viability) as measure of internalization” value [2] was “no significant alterations” and the “cytotoxic induction (cell viability) as measure of internalization” value [3] was “dose-dependent cytotoxic induction”. The binding to albumin [4] was “absence of binding to albumin”.
